From patent publication US8398971B2, “Methods, compounds, and compositions for treatment and prophylaxis in the respiratory tract” (NexBio, Inc., priority 2009, dated 2013)
“And” between values parts separate entries of the source, which are not always exact repeats. Identical values can stand only once. “Also recorded” adds a separate entry of the source. Like-named read-outs stand apart in the source and are kept apart here.

Experiments:
[1] = pH 5; cited from earlier work
[2] = system: acute OVA challenge mouse model of asthma; experiment: PAS staining for lung mucus in OVA mouse model of asthma; parameters: species or system BALB/c mice; details: in vivo
[3] = system: acute OVA challenge mouse model of asthma; format: in vivo, BALB/c mice; details: 0.6 mg/kg intranasal one hour prior to each OVA challenge; day 31
M3 muscarinic receptor = biological target: T1, M3 muscarinic receptor (Homo sapiens, UniProt P20309); experiment: M3 muscarinic receptor signaling in chem-1 cells (intracellular calcium); format: cell-based; details: 0.4, 2 or 10 μM
T1 construct: host or cells: chem-1 cells
T1 sequence (P20309 whole entry): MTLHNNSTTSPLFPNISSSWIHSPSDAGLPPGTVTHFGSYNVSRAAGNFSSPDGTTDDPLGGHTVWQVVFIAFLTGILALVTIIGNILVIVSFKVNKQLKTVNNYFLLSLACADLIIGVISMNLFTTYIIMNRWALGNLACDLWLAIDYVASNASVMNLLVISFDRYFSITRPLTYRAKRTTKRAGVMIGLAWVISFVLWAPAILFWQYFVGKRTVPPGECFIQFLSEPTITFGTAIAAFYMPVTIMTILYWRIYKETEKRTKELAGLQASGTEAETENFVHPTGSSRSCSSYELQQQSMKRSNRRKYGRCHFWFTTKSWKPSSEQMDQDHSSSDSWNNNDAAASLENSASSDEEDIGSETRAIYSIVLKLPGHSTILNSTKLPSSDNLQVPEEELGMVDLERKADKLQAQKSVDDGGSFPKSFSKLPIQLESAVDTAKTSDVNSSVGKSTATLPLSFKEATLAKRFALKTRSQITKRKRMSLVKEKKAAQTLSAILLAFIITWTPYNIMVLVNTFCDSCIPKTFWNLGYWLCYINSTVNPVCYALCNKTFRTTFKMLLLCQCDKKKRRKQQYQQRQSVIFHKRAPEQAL

[4] = system: acute OVA challenge mouse model of asthma; experiment: blood eosinophil counts in OVA mouse model of asthma; format: in vivo, BALB/c mice; details: 0.6 mg/kg intranasal
[5] = system: guinea pig model of allergic asthma; experiment: cell count and differentiation in broncho-alveolar lavage fluid of guinea pigs; format: in vivo
M2 muscarinic receptor = M2 muscarinic receptor (Homo sapiens, UniProt P08172); experiment: M2 muscarinic receptor signaling in chem-1 cells (intracellular calcium); format: cell-based; details: 0.4, 2 or 10 μM
Chain of M2 muscarinic receptor (P08172 whole entry): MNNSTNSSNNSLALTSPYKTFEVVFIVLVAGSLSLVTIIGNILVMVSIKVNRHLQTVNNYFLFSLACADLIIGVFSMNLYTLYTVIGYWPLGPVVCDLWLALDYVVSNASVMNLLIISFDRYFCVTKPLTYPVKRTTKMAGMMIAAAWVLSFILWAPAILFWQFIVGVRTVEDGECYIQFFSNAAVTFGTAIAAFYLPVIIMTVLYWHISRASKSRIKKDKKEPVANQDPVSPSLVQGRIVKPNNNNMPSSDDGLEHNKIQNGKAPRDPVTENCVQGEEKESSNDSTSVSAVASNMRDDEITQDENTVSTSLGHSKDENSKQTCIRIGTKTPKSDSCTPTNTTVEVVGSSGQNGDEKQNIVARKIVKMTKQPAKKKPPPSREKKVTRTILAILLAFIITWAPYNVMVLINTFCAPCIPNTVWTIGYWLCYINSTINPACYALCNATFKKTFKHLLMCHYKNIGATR

[6] = system: guinea pig model of allergic asthma; experiment: allergen-induced early asthmatic reaction (PenH) in conscious unrestrained guinea pigs; format: in vivo; details: for decrease of early asthmatic reaction (PenH) after OVA aerosol: OVA guinea pigs; for basal PenH: guinea pig, in vivo, 0.3 mg/kg
influenza A (H1N1) virus = format: in vivo, ferrets; details: for inflammatory response of infected ferrets: topical administration

B1: A. viscosus: bacterial sialidase enzyme from Actinomyces viscosus (SEQ ID NO:12) (protein, listed as Actinomyces viscosus)
chain: MTSHSPFSRRRLPALLGSLPLAATGLIAAAPPAHAVPTSDGLADVTITQVNAPADGLYSVGDVMTFNITLTNTSGEAHSYAPASTNLSGNVSKCRWRNVPAGTTKTDCTGLATHTVTAEDLKAGGFTPQIAYEVKAVEYAGKALSTPETIKGATSPVKANSLRVESITPSSSQENYKLGDTVSYTVRVRSVSDKTINVAATESSFDDLGRQCHWGGLKPGKGAVYNCKPLTHTITQADVDAGRWTPSITLTATGTDGATLQTLTATGNPINVVGDHPQATPAPAPDASTELPASMSQAQHLAANTATDNYRIPAITTAPNGDLLISYDERPKDNGNGGSDAPNPNHIVQRRSTDGGKTWSAPTYIHQGTETGKKVGYSDPSYVVDHQTGTIFNFHVKSYDQGWGGSRGGTDPENRGIIQAEVSTSTDNGWTWTHRTITADITKDKPWTARFAASGQGIQIQHGPHAGRLVQQYTIRTAGGAVQAVSVYSDDHGKTWQAGTPIGTGMDENKVVELSDGSLMLNSRASDGSGFRKVAHSTDGGQTWSEPVSDKNLPDSVDNAQIIRAFPNAAPDDPRAKVLLLSHSPNPRPWSRDRGTISMSCDDGASWTTSKVFHEPFVGYTTIAVQSDGSIGLLSEDAHNGADYGGIWYRNFTMNWLGEQCGQKPAEPSPAPSPTAAPSAAPTEKPAPSAAPSAEPTQAPAPSSAPEPSAAPEPSSAPAPEPTTAPSTEPTPAPAPSSAPEQTDGPTAAPAPETSSAPAAEPTQAPTVAPSVEPTQAPGAQPSSAPKPGATGRAPSVVNPKATGAATEPGTPSSSASPAPSRNAAPTPKPGMEPDEIDRPSDGTMAQPTGGASAPSAAPTQAAKAGSRLSRTGTNALLILGLAGVAVVGGYLLLRARRSKN
stability in buffer [1]: stable

B2: DAS181: fusion protein comprising a catalytic domain of a sialidase, and an anchoring domain (SEQ ID NO:21) (protein)
chain: MGDHPQATPAPAPDASTELPASMSQAQHLAANTATDNYRIPAITTAPNGDLLISYDERPKDNGNGGSDAPNPNHIVQRRSTDGGKTWSAPTYIHQGTETGKKVGYSDPSYVVDHQTGTIFNFHVKSYDQGWGGSRGGTDPENRGIIQAEVSTSTDNGWTWTHRTITADITKDKPWTARFAASGQGIQIQHGPHAGRLVQQYTIRTAGGAVQAVSVYSDDHGKTWQAGTPIGTGMDENKVVELSDGSLMLNSRASDGSGFRKVAHSTDGGQTWSEPVSDKNLPDSVDNAQIIRAFPNAAPDDPRAKVLLLSHSPNPRPWSRDRGTISMSCDDGASWTTSKVFHEPFVGYTTIAVQSDGSIGLLSEDAHNGADYGGIWYRNFTMNWLGEQCGQKPAKRKKKGGKNGKNRRNRKKKNP
PAS staining of airway epithelium (lung mucus) vs OVA challenged mice [2]: statistically significant reduction in PAS staining; also recorded: significantly reduced PAS staining | Penh at 48 mg/ml Mch vs OVA challenged mice [3]: reduction in Penh | effect on potency of agonist-mediated M3 receptor signaling (M3 muscarinic receptor): decreased the potency of agonist-mediated M3 receptor signaling | blood eosinophils vs OVA challenged mice [4]: significantly reduced blood eosinophils | number of eosinophils in BAL fluid ([5]; guinea pig, in vivo): restore the number of eosinophils up to historical control levels | number of lymphocytes in BAL fluid ([5]; guinea pig, in vivo): decreased | number of all inflammatory cells (macrophages, lymphocytes, neutrophils and eosinophils) ([5]; inflammation caused by SOD or OVA): significantly decreased | neutrophil influx into the lungs (BAL) ([5]; saline and OVA groups): completely prevented this influx | total number of cells in BAL fluid ([5]; saline and OVA guinea pigs): decreases the total number of cells | total number of macrophages in BAL fluid ([5]; treatment on day 15 and 20, saline and OVA guinea pigs): strongly decreased | effect on potency of agonist-mediated M2 receptor signaling (M2 muscarinic receptor): increased the potency of agonist-mediated M2 receptor signaling | decrease of early asthmatic reaction (PenH) after OVA aerosol ([6]; treated on day 15, vs sodium sulfate): ~30% | decrease of early asthmatic reaction (PenH) after OVA aerosol ([6]; treated on day 20): not on day 20 | basal PenH [6]: 0.25±0.01 and 0.28±0.01 | basal PenH ([6]; listed as Fludase®): 0.27±0.02 and 0.31±0.03

B3: AR-AvCD: recombinant AR-AvCD sialidase fusion protein made from Construct #2 (FIG. 5, SEQ ID NOs: 18 & 19) (protein)
chain: MVKRKKKGGKNGKNRRNRKKKNPGDHPQATPAPAPDASTELPASMSQAQHLAANTATDNYRIPAITTAPNGDLLISYDERPKDNGNGGSDAPNPNHIVQRRSTDGGKTWSAPTYIHQGTETGKKVGYSDPSYVVDHQTGTIFNFHVKSYDQGWGGSRGGTDPENRGIIQAEVSTSTDNGWTWTHRTITADITKDKPWTARFAASGQGIQIQHGPHAGRLVQQYTIRTAGGAVQAVSVYSDDHGKTWQAGTPIGTGMDENKVVELSDGSLMLNSRASDGSGFRKVAHSTDGGQTWSEPVSDKNLPDSVDNAQIIRAFPNAAPDDPRAKVLLLSHSPNPRPWSRDRGTISMSCDDGASWTTSKVFHEPFVGYTTIAVQSDGSIGLLSEDAHNGADYGGIWYRNFTMNWLGEQCGQKPAEGADYGGIWYRNFTMNWLGEQCGQKPAE
reduction of mean AUC of nasal protein concentrations vs vehicle-treated infected animals (influenza A (H1N1) virus; 8 infected treated ferrets): approximately 40% | mean AUC of nasal protein concentrations (influenza A (H1N1) virus; 8 infected treated ferrets that shed virus, vehicle 4.48): 2.68 arbitrary units | reduction of AUC value for cell counts vs vehicle-treated infected animals (influenza A (H1N1) virus; in vivo): approximately 3 fold | AUC value for inflammatory cell counts in nasal washes (influenza A (H1N1) virus; infected treated ferrets, vehicle 1965): 674 arbitrary units | inflammatory response of infected ferrets (influenza A (H1N1) virus): reduces the inflammatory responses | inflammatory response of infected ferrets (influenza A (H1N1) virus; listed as fusion protein): the inflammatory response was reduced | number of inflammatory cells in the nasal washes (influenza A (H1N1) virus; vs vehicle-treated infected animals): significant reduction in the number of inflammatory cells
